PMC7958597, “In Vivo Biodistribution and Efficacy Evaluation of NeoB, A Radiotracer Targeted to GRPR, in Mice Bearing Gastrointestinal Stromal Tumor” (Cancers, 2021)
Where “and” joins values, the source holds several entries; their conditions need not be identical. Equal values may be shown once. Read-outs that look alike come from different tables or passages of the source.

What was measured:
[1] = system: PC-3 bearing mice; settings: cited from earlier work
Description: In this study, we evaluate for the first time the theragnostic potential of [^177Lu]Lu-NeoB for tumor treatment by performing biodistribution and therapeutic studies in mice bearing GIST. In accordance with above mentioned finding, injected mass ranging from 200 to 800 pmol were employed. […] Indeed, in PC-3 be ...

[2] = system: SCID mice bearing GIST-882 tumors (GRPR expressing); assay: Biodistribution of [^177Lu]Lu-NeoB by organ sampling and gamma counting; assay type: in vivo
Experimental: (§1) All procedures were performed in accordance with the institutional guidelines and approved by the animal care and use committee of Grenoble University (APAFIS#6544-2016082615349282 v8). The study was performed on 6-weeks old male SCID mice (Charles River). A total of 82 mice were used, 42 for the biodistribution sub-study and 40 for the therapy sub-study. Mice were subcutaneously inoculated into the left flank with GIST-882 (2 to 4 × 10^6) in a 1:1 PBS/Matrigel® (Corning, Corning, NY, USA) mixture.
(§2) Biodistribution of [^177Lu]Lu-NeoB was evaluated when the tumor volume reached ~200 mm^3. The biodistribution was evaluated at 7 time points (1 h, 4 h, 4 h + block, 24 h, 48 h, 96 h, and 168 h). The compound was injected intravenously (100 µL/200 pmol/~0.8 MBq per mice). Moreover, an excess of 40 nmol unlabeled NeoB was co-injected in the mice of the 4 h + block condition. At the selected time point, mice were euthanized by CO2 inhalation, and the main organs and fluids were sampled and weighed. The activity was determined using a gamma well counter (Wizard^2 PerkinElmer, Waltham, MA, USA), the results were corrected for background, decay and sample weight, and the data were expressed as a % ID/g (percentage of injected dose per gram of tissue).

[3] = as above; assay type: in vivo, mice; settings: male, mouse, iv, total radioactivity
Experimental: as §1, §2

[4] = SPECT-CT quantification of tumor uptake; assay type: in vivo, mice; settings: male, SCID, mouse, GIST-882 tumor, iv, total radioactivity, 37 MBq i.v., 24 h post injection, n = 3
Experimental: Dual single photon emission computed tomography and x-ray computed tomography (SPECT-CT) imaging were performed in a subset of 6 mice of the therapeutic efficacy sub-study (3 from 400 pmol group and 3 from 800 pmol group). Acquisitions were performed the day after [^177Lu]Lu-NeoB injection (24 h post injection). SPECT-CT acquisitions were performed using a dedicated camera (nanoscan SPECT/CT, Mediso, Budapest, Hungary). Animals were placed on a pathogen-free animal handling system (MulticellTM, Mediso, Budapest, Hungary) under gas anesthesia (isoflurane 1–2%). Whole body imaging was performed. SPECT duration was of approximately 35 min, and CT acquisition of 5 min (at 35 kvp). Acquisitions were reconstructed with Nucline software using Monte Carlo reconstruction and scatter and attenuation correction, corrected for decay and expressed as % injected dose per gram (% ID/g). Image analysis was performed using Vivoquant software (version 3.5, Invicro, Boston, MA, USA).

[5] = system: GIST-882 tumor; assay: Therapeutic efficacy (tumor growth, survival without reaching limit tumor volume); assay type: in vivo, mice; settings: for mice excluded due to tumor volume over the limit of 1500 mm^3: 100 days of follow-up, 5 out of 13 control mice reached the limit; for tumor volume in comparison to control group: 37 MBq i.v. once a week for 3 weeks, day 0-26
Experimental: as §1
(§3) Efficacy was evaluated on 40 mice when the tumor volume reached ~100 mm^3. Control mice were intravenously injected with saline (Control group, n = 13), whereas treated mice received either 400 pmol (400 pmol group, n = 13) or 800 pmol (800 pmol group, n = […]) of 37 MBq of [^177Lu]Lu-NeoB once a week for 3 weeks. Tumor size was recorded 3 times per week before and after therapy administration and 5 times per week during the 3 weeks of the therapy administration. When a tumor volume exceeding 1500 mm^3 the animal was removed from the study and euthanized by CO2 inhalation. Pancreas was then frozen, 10 µm-thick slices were stained using hemato-eosin saffron (HES) and subsequently analyzed by a histopathologist.

[6] = Stability of the radiolabeled preparation by radio-HPLC (RCP); assay type: physicochemical; settings: 24 h after labeling; Symmetry C18, H2O/acetonitrile 0.1% TFA gradient
Experimental: ^177Lu^3+ in aqueous 0.04 M HCl solution was purchased from ITG (Garding, Germany). Chemicals for radiolabeling were of trace metal® grade. Radiochemical purity (RCP) of each radiolabeled solution was determined using a high performance liquid chromatography (HPLC) apparatus (Shimadzu, France) equipped with NaI (Tl) scintillation detectors (LabLogic, UK). The radiolabeling was performed as previously described (25). For the biodistribution sub study, 92 nmol of NeoB was radiolabeled with 370 MBq of ^177LuCl3 and the reaction was then incubated at 95 °C for 7 min. The concentration was then adjusted at 200 pmol/100 µL (0.8 MBq) and a sterilizing filtration was performed. A similar protocol was employed for the therapy sub-study, using 20 nmol of NeoB and 1850 MBq of Lu-177. The concentration was then adjusted at 400 pmol/100 µL (37 MBq). A second solution of 800 pmol per 100 µL (37 MBq) was obtained by the addition of unlabeled NeoB peptide. A 0.22 µm sterile filtration was then performed. Radiochemical purity (RCP) was determined immediately after labeling and at 24 h by radio-HPLC analysis using an analytical reverse-phase column (Symmetry C18, 5 μm, 150 × 4.6 mm). A gradient elution was performed using solvent A (H2O, 0.1% TFA) and solvent B (acetonitrile, 0.1% TFA) as mobile phase at a flow rate of 1 mL/min.

[7] = Tolerability in the efficacy sub-study (body weight, pancreas histology HES); assay type: in vivo, mice; settings: 400 or 800 pmol, 37 MBq once a week for 3 weeks
Experimental: as §3

[8] = from time activity curve 1-168 h, 200 pmol i.v.

CC(C)CC(CC(C)C)NC(=O)[C@H](Cc1cnc[nH]1)NC(=O)CNC(=O)[C@@H](NC(=O)[C@H](C)NC(=O)[C@H](Cc1c[nH]c2ccccc12)NC(=O)[C@H](CCC(N)=O)NC(=O)[C@@H](Cc1ccccc1)NC(=O)COCC(=O)Nc1ccc(CNC(=O)CN2CCN(CC(=O)O)CCN(CC(=O)O)CCN(CC(=O)O)CC2)cc1)C(C)C [[^177Lu]Lu-NeoB, metal not drawn]
pancreas half-life ([1]; 200 pmol): 11 h
tumor half-life in prostate tumors ([1]; 200 pmol): 28 h
tumor-to-pancreas ratio ([1]; as early as 4 h after injection of 200 pmol): > 1
uptake in GIST tumor ([2]; 4 h pi, 200 pmol/~0.8 MBq i.v., mean ± SD): 19.1 ± 3.9 % ID/g
decrease of uptake in GIST tumor by co-injection of unlabeled NeoB ([2]; 4 h pi, 40 nmol unlabeled NeoB): > 98%
uptake in GIST tumor, 4 h + block ([2]; 4 h pi, co-injected with excess of 40 nmol unlabeled NeoB, mean ± SD): 0.3 ± 0.1 % ID/g
uptake in adrenals, blood, GIST tumor, large and small bowel, pancreas and stomach when co-injected with excess unlabeled NeoB ([2]; 4 h pi, p < 0.05, multiple t tests, Holm-Sidak): significantly reduced
tumor-to-pancreas ratio (maximum value) ([2]; at 168 h (1 week), mean ± SD): > 300
half-life in pancreas [2, 8]: 2.41 h and 2.4 h
half-life of retention in GIST tumor [2, 8]: 40.19 h and 40 h
tissue uptake at 1 h ([3]; SCID, GIST-882 tumor, 200 pmol/mouse, 1 h pi, 200 pmol/~0.8 MBq i.v., mean ± SD, read-out: uptake in GIST-882 tumor): 21.6 ± 1.7 %ID/g
tissue uptake at 4 h ([3]; SCID, GIST-882 tumor, 200 pmol/mouse, 4 h pi, 200 pmol/~0.8 MBq i.v., mean ± SD, read-out: uptake in GIST tumor): 19.1 ± 3.9 %ID/g
tissue uptake at 24 h ([3]; SCID, GIST-882 tumor, 200 pmol/mouse, 24 h pi, 200 pmol i.v., mean ± SD): 13.4 ± 3.5 %ID/g
tissue uptake at 48 h ([3]; SCID, GIST-882 tumor, 200 pmol/mouse, 48 h pi, 200 pmol i.v., mean ± SD): 10.5 ± 1.6 %ID/g
tissue uptake at 96 h ([3]; SCID, GIST-882 tumor, 200 pmol/mouse, 96 h pi, 200 pmol i.v., mean ± SD): 5.9 ± 0.3 %ID/g
tissue uptake at 168 h ([3]; SCID, GIST-882 tumor, 200 pmol/mouse, 168 h pi, 200 pmol i.v., mean ± SD): 2.5 ± 0.7 %ID/g
tissue uptake at 4 h ([3]; SCID, GIST-882 tumor, 4 h pi, co-injected with excess of 40 nmol unlabeled NeoB, mean ± SD, read-out: uptake in GIST tumor, 4 h + block): 0.3 ± 0.1 %ID/g
tissue uptake at 1 h ([3]; SCID, bladder, 200 pmol/mouse, 1 h pi, 200 pmol/~0.8 MBq i.v., mean ± SD, read-out: uptake in bladder): 20.6 ± 19.7 %ID/g
tissue uptake at 4 h ([3]; SCID, large bowel content, 200 pmol/mouse, 4 h pi, 200 pmol/~0.8 MBq i.v., mean ± SD, read-out: uptake in large bowel content): 10 ± 3.5 %ID/g
tissue uptake at 1 h ([3]; SCID, pancreas, 200 pmol/mouse, 1 h pi, 200 pmol/~0.8 MBq i.v., mean ± SD, read-out: uptake in pancreas): 19.8 ± 2.6 %ID/g
tissue uptake at 4 h ([3]; SCID, pancreas, 200 pmol/mouse, 4 h pi, 200 pmol/~0.8 MBq i.v., mean ± SD, read-out: uptake in pancreas): 8.5 ± 2 %ID/g
tissue uptake at 4 h ([3]; SCID, pancreas, 4 h pi, co-injected with excess of 40 nmol unlabeled NeoB, mean ± SD, read-out: uptake in pancreas, 4 h + block): 0.1 %ID/g
tissue to tissue ratio ([3]; SCID, tumor and kidney, 200 pmol/mouse, all investigated time points 1-168 h): > 1
tissue to tissue ratio at 96 h ([3]; SCID, tumor and kidney, 200 pmol/mouse, at 96 h, mean ± SD, read-out: tumor-to-kidney ratio (maximum value)): 112 ± 5
tissue to tissue ratio at 48 h ([3]; SCID, tumor and liver, 200 pmol/mouse, at 48 h, mean ± SD, read-out: tumor-to-liver ratio (maximum value)): 54 ± 5
tissue to tissue ratio at 168 h ([3]; SCID, tumor and pancreas, 200 pmol/mouse, at 168 h (1 week), mean ± SD, read-out: tumor-to-pancreas ratio (maximum value)): 309 ± 148
excreta dose per gram or mL at 4 h ([3]; SCID, urine, 200 pmol/mouse, 4 h pi, 200 pmol/~0.8 MBq i.v., mean ± SD, read-out: uptake in urine): 216 ± 193 %ID/g
excreta dose per gram or mL at 1 h ([3]; urine, 200 pmol/mouse, 1 h pi, 200 pmol/~0.8 MBq i.v., GIST-882 bearing SCID mice, gamma counter, mean ± SD, read-out: uptake in urine): 600 ± 155 %ID/g
tissue uptake at 24 h ([4]; 400 pmol group): ~11 %ID/g
tissue uptake at 24 h ([4]; 800 pmol group, p < 0.05 vs 400 pmol): ~7 %ID/g
tumor regression ([5]; 400 pmol dose, 37 MBq once a week for 3 weeks): complete tumor regression
mice excluded due to tumor volume over the limit of 1500 mm^3 ([5]; 400 pmol group): none
residual tumor ([5]; 400 pmol group, from day 65): no residual tumor volume
tumor volume in comparison to control group ([5]; 400 pmol, p = 0.0001): significantly reduced
mice excluded due to tumor volume over the limit of 1500 mm^3 ([5]; 800 pmol group): none
tumor volume in comparison to control group ([5]; 800 pmol, p = 0.0066): significantly reduced
stability after labeling (radiochemical purity by radio-HPLC) [6]: remained stable
total body weight of treated animals [7]: No change
off-target effect (inflammation, fibrosis, architecture alteration) on HES stained pancreatic sections ([7]; end of follow up): no off-target effect
